Reference: the DeepSol protein solubility set

Experiment: soluble on expression in E. coli; label from the status in PepcDB or PDB records

Which “soluble on expression in E. coli” value does the source give for “MGARGKFDQFDDGKIKLASSLTSKAAANALQTIIEKYNIVKSGKDYPIEITQIAGGYDGGRTDLQTRVSVKDKTNFYNLILNYPDLVSVLARSGMELLFDKVNVDKLEPNFLKFNEQISGVAKSGNYGIPVSLSTDILVLNGPVLHYILNSAKKEEANSQVKSQIKTSQIQAKGSLTIDTDENTKSLWEKIQNSAKANGETNQKGRKAAKSNKTALVQLKNGADTTTNEENKDTKTSDDKVKQTWGDYVEKDDGLKNYTFRASVFENWHDFLDFSTRVAKSFTEKVSNITNKKGTDIQGVLGVDSSPNVLFASVFAAGGGNYENFFYKLKDGRADFSNFKNKGSSYQNLQSVFKDLEHHHHHH” here?
Its value is “not soluble”.

For “MGCMNRENALHIVKQQMHEKRYIHTIGVMETAIELAKLYGVDEKKAEMAAIFHDYAKCRAISEMEEIIKREDLPKDLLCYNKELWHAPVGAYLVEKEVGITDSEILQAITYHTSGHENMTMLDKVIYVADYIEPGRKFPGVEEARKLAYTDINQALLFALKRTIQFLMEKDQTIYPLTFQTYNAVIKEEMSK”, which “soluble on expression in E. coli” value is on record?
The value was “not soluble”.

With “MGCTLSAEDKAAVERSKMIDRNLREDGERSRRELKLLLLGTGESGKSTFIKQMRIIHGSGYSDEDKRGFTKLVYQNIFTAMQAMIRAMDTLKIPYKYEHNKAHAQLVREVDVEKVSAFENPYVDAIKSLWNDPGIQECYDRRREYQLSDSTKYYLNDLDRVADPSYLPTQQDVLRVRVPTTGIIEYPFDLQSVIFRMVDVGGQRSERRKWIHCFENVTSIMFLVALSEYDQVLVESDNENRMEESKALFRTIITYPWFQNSSVILFLNKKDLLEEKIMYSHLVDYFPEYDGPQRDAQAAREFILKMFVDLNPDSDKIIYSHFTCATDTENIRFVFAAVKDTILQLNLKEYNLV” as the sequence, how does the “soluble on expression in E. coli” value read?
Its value is “soluble”.

With “MGDELHVIVARSVNVTHKEPPVVPDEQRREMVGALKPVDEAHLGHSEDIFIPIERIEPDIIALGYDQHHDDEQLEAALSARGIDCDICRASPLETEAADRVLSTGRIIDRILDERS” as the sequence, how does the “soluble on expression in E. coli” value read?
The value was “not soluble”.

For “MGDKQFAVIGLGRFGLAVCKELQDSGSQVLAVDINEDRVKEAAGFVSQAIVANCTHEETVAELKLDDYDMVMIAIGADVNASILATLIAKEAGVKSVWVKANDRFQARVLQKIGADHIIMPERDMGIRVARKMLDKRVLEFHPLGSGLAMTEFVVGSRLMGKTLSDLALCKVEGVQVLGFKRGPEIIKAPDMSTTLEIGDLIIVVGPQDKLANKLKSLEHHHHHH”, which “soluble on expression in E. coli” value is on record?
The value was “soluble”.

Which “soluble on expression in E. coli” value does the source give for “MGDVAGMAYLDSMSNEKVWFGYTLKEAQAQQIGLGLDLKGGMNVILKLNASDLLRNLSNKSLDPNFNKALENAAKSTEQSDFIDIFVKEYRKLDPNGRLAVIFGSGDLRDQITAKSTDADVVRLLKEKYNSAVEASFNVLRARIDAFGVVAPNLQRLEGQGRILVELPGVKDPERVRTLLQRSANLQFWRTYKFEEVSGDLIAANDRLSELAMNNTDATPETEPATTDSVAATADSAAVQAVADSATVAQKEAKDATRKDALFSLLTPVNRGGAVVGVARRANMAQISEMLQQAHDLKVTREDVLFLWGAKAIEDPETKKETDLYELYAIRTNRTGDPDLGGDVVTSAKSDIQNDFGRSEPIVSMTMNEEGARKWARITKDNVGRAIAIVLDGVVYSAPNVNDEITGGRSQISGHFTVEEAGDLANVLNSGKMDATVSIEQENVIGPTLGAESIKA” here?
The value was “not soluble”.

Which “soluble on expression in E. coli” value does the source give for “MGEAETPSFEMTWSSTTSSGYCSQEDSDSELEQYFTARTSLVRRPRRDQDEAVERETPDLSQAETEQKIKDYNGQINSNLFMSLNKDGSYTGFIKVQLKLVRPVSVPSSKKPPSLQDARRGTGRSTAVKRRTSFYLPKDAIKHLHVLSRTRAREVIEALLRKFMVVDDPRKFALFERTERHGQVYLRKLSDDEQPLKLRLLAGPSEKALSFVLKENDSGEVNWDAFSMPELHNFLRILQREEEEHLRQILQKYSRCRQKIQEALHACPLG” here?
The value was “soluble”.

Which “soluble on expression in E. coli” value does the source give for “MGEEFEKLMKKFENVNKDGEIVEDEDEWEEFFKQEEYVKIPKDRIAVLIGKKGQTKKEIEKRTKTKITIDSETGEVWITSTKETEDPLAVWKARDIVLAIGRGFSPERAFRLLNEGEYLEIINLTDIIIGNEKNALPRVRGRIIGRKGRTRQIIEEMSGASVSVYGKTVAIIGNPIQIEIAKTAIEKLARGSPHGSVYRYLERRKKDLELEGAMYYENL” here?
Its value is “soluble”.

With “MGERADTFLAHFNRIEKWMRERLNNPVNMGFSEMTRRLSRKEKGQIAQFEEDLLQMAQLRNAIVHERIADDFVIAEPNEWAVQRIETIEQALTKPEKVVPKFAKRVTAFEITTSLETLLTIIAKKQYSQFPIYEKGVFKGLITVRGIGVWFAIESTKGEVHIANRTVRELLASNYKRSNYQFVSIEATVFEVEQMFREQPRLEAVLISKSGHPNGELVGIVRPRDLASIHREKE” as the sequence, how does the “soluble on expression in E. coli” value read?
Its value is “not soluble”.

With “MGESSGGGNSRQLQFSRKAGKGVVKTIHEYRSKPLRVGRKGEWRPAISDENRKLIRGVAEIIKIRPINVPDYAVVNPLGIMRQAYGTMVGGIANEPWSLESRKTIEEVVFLPIMDGEVRKGQLEHHHHHH” as the sequence, how does the “soluble on expression in E. coli” value read?
Its value is “not soluble”.

With “MGEVFKMDGLASTILEVHKPAKLEDIPDEDPIAIILALKWLEYLCERAGVENVSDILDFYYMLGWLGDKALAKLLKFLKGIKVDEENVVEGSGKLNITDHIISLLFIERLNGKKISAELLDKIEWELRKIKKGAEQFYGI” as the sequence, how does the “soluble on expression in E. coli” value read?
The value was “not soluble”.

Which “soluble on expression in E. coli” value does the source give for “MGEYIRYQGEEALGLIETLGMVPAIYGADSMLKAANVQLISYENVGSTLVTVMVKGDVAAVQASVDAGSVAAAGIGKLTAHNVMPRPIRPIGDIVSVHAITDDAPAGDGSRPRAMGLIETFGIVYVLEAADAMLKTADVELIGYENVASGYISVLVQGDVAACQAAVAAGVKAVQAMGTDVYSSVVIPTPHPDVAKITARYALENLLP” here?
Its value is “not soluble”.

With “MGFFDSGIGGMTVLYEAIKVLPYEDYIFYADTLNVPYGEKSKGKVKEYIFNAAEFLASQNIKALVIACNTATSIAIEDLRRNFDFPIIGIEPAVKPAINKCTEERKRVLVVATNLTLKEEKFHNLVKEIDHHDLVDCLALPGLVEFAENFDFSEDKIIKYLKNELSSFDLKQYGTIVLGCTHFPFFKNSFEKLFGIKVDMISGSVGTAKQLKKVLADRNQLGKGSGSITFFNSGHKIVDQEVISKYKRLFEILDETQRSHVGH” as the sequence, how does the “soluble on expression in E. coli” value read?
Its value is “not soluble”.

Which “soluble on expression in E. coli” value does the source give for “MGFGIGDLFWIFLLLTSLQPLWQKRQIEYRRLRALQEFQQERKSRVILLIHRQESISFLGIPISRYITIEDSEQILRAIRLTPPDVPIDLILHTPGGLVLATEQIARALIRHQAKVTVFVPHYAMSGGTMLALASDEIIMDANAVLGPVDPQLGNYPAASILKVIEDKPISEIDDQTLIMADLSRKAIGQVQRFVRTLLKDSIPKQKVLPENIESIIEALTTGRVTHDYPITIEEATEMGLPVTVGLPHSIYDLMDLYPQAQGGRPSVQYIPMPYNDPRPIL” here?
Its value is “not soluble”.

For “MGFKCGIVGLPNVGKSTLFNALTKAGIEAANYPFCTIEPNTGVVPMPDPRLDALAEIVKPERILPTTMEFVDIAGLVAGASKGEGLGNKFLANIRETDAIGHVVRCFENDDIVHVAGKIDPLDDIDTINTELALADLDSCERAIQRLQKRAKGGDKEAKFELSVMEKILPVLENAGMIRSVGLDKEELQAIKSYNFLTLKPTMYIANVNEDGFENNPYLDRVREIAAKEGAVVVPVCAAIESEIAELDDEEKVEFLQDLGIEEPGLNRVIRAGYALLNLQTYFTAGVKEVRAWTVSVGATAPKAAAVIHTDFEKGFIRAEVIAYEDFIQFNGENGAKEAGKWRLEGKDYIVQDGDVMHFRFNV”, which “soluble on expression in E. coli” value is on record?
Its value is “soluble”.

With “MGFVDRGGGREAKGASLRRSKNNPGASIAKNKSAKKDYTTPATRATPTPPPACLPVLKALMAAASAGATAMEATAASTVTDFEKALAAVRDAAQTGGSPYIDAAVALLSRKLEEDREGIFRRAAEEGKLAAVVCWCGEAERQSLLLNTCVQHNKLYRGTLEQQQRSSATGGGARHVHFNVDGAVVASVAAAVTTSSSSTKASILLYAVLGIHVNSIDRVNMRLHDQWVKELEANVKHSDVVGVLTGLNLSREHGTHYAQERLFKECWRVAAEVRLPLVLHLGAADAASLTETVNRAAKLLDELLAATSATADGAGAAPSAVVLHNGLRALHASTAMQQLVRAHRPAAGRTAAAVPFYVLATADGLAVAKTEGSETEVTATTDSGPSVEALAALLPPRAGLGSNSDSATTTSSGGDAAVHLSQLLIGTGAPWGTPQNLPDPYLCTLPNEPGNYAYVVQTLYDAMRAPPPPPTAAAAAAELTLADLSAIAAVNYLLAFFHECVWEQEQQQQQQRSGSDDETTADALQQQQRRWVESQQPVVVAGLADSDVKRDLEALLAEAAKERERMEQERLREEAGLAQARSEELQQKRSRRERKKNVKANNRSNFTHFRNKDFAPRQSKQEKPAHLREVVGIREGGSTDVDGRERTPSSSSAASDSGSAGGPNSLAAQVERLLKANAAHRDPECRAQRQPAGRGKGRGQNALAGSRKVGRSADMKSSEQPQQQYGAGAGGKAENGSPSDGSDDDDERYTRTRAL” as the sequence, how does the “soluble on expression in E. coli” value read?
Its value is “not soluble”.

With “MGGAERVMATLANEFVKRGHQVRLVTLKKAVSAYELDKRVEFIGGGADINSGNFLIKRIQMISAVIKGTLFYRRQLREYKPDIILSFLTYTNLLSVINNRISRVKYPVVVSERCDPRKRSKLLIKLCNIVYPLADCIVCQSKVIQDYFLNKNPKSVTKVIPNPVNEECINKEEIIKRRKLIVAVGRLSNQKNYDLLIDAFSDIANEYSEYRLEIYGEGPERERLQKKINRLGLNDRIQLMGTKTNVMKHIADAQLFVMSSNFEGFPNALAEAMASGLPVISTNFPSGVAKELIIDGENGYVVDINNREQMADAMRKILGDPLTITKMSKNNVLLREKLNVKTVANMWENLFNDILEKRTKNEKN” as the sequence, how does the “soluble on expression in E. coli” value read?
Its value is “not soluble”.

Which “soluble on expression in E. coli” value does the source give for “MGGFGVGKTTLVRSVSEIRPLNTEEVMTQAGVGVDETGGVTSKTTTTVAFDFGRISLNDRMVLYLFGAPGQERFWFLWDRLFSGTLGAVVLVDTRRMDDSWYAIDRLEHHRTPFVVAVNRFDDDTARHSLDEIRLALALPDHVPLIDCDARVRTSGKHVLVTLVDHLYQLALAQESASLEHHHHHH” here?
The value was “not soluble”.

With “MGGLDKMSVEKKLLLDVKDLKVHFNITPKSAWPWTKPVTLKAVDGVNVRLYEGETLGVVGESGCGKSTFARAIIGLVQATHGEVVWLGQDLTRMQEVKRRATRKQIQMIFQDPLASLNPRMTVGDIIAEPLQTFYPELSKQEVKDRVKEMMAKVGLLPNVINRYPHEFSGGQCQRIGIARALILKPKMIICDEPVSALDVSIQAQVVNLLKELQKELGLSLVFIAHDLSVVKHISDRVLVMYLGNAVELGVSKELFANPKHPYTKALMSAVPIPDPNIERNKTIQMLEGDLPSPMNPPSGCVFRTRCPQATAECAKTKPVIKGSDIHSVSCLYAEA” as the sequence, how does the “soluble on expression in E. coli” value read?
Its value is “not soluble”.

For “MGGSHHHHHHGMASALTDQTYCDRLVQDTPFLTGHGRLSEQQVDRIILQLNRYYPQILTNKEAEKFRNPKASLRVRLCDLLSHLQRSGERDCQEFYRALYIHAQPLHSRLPSRHALQNSDCTELDSGSQSGELSNRGPMSFLAGLGLAVGLALLLYCYPPDPKGLPGTRRVLGFSPVIIDRHVSRYLLAFLADDLGGL”, which “soluble on expression in E. coli” value is on record?
Its value is “not soluble”.

For “MGGSLGLALQEWGRFKSVIGYDHNALHAKLALTLGLVDECVGFEKILECDVIFLAIPVEGIIGCLKKMTSIKKSATIIDLGGAKAQIIRNIPKSIRKNFIAAHPMCGTEFYGPKASVKGLYENALVILCDLEDSGTEQVEIAKEIFLGVKARLIKMKSNEHDTHVAYISHLPHVLSYALANSVLKQNDPEMILSLAGGGFRDMSRLSKSSPLMWKDIFKQNRDNVLEAIKKCEKEIVQAKAWIENNDYESLAEWMAQANKLQEFMLEHHHHHH”, which “soluble on expression in E. coli” value is on record?
Its value is “not soluble”.
